Like-named read-outs stand apart in the source and are kept apart here.
Assays:
GFP-Paxillin [1] = target: GFP-Paxillin (UniProt P49023); experiment: FRET or BRET
GFP-Paxillin [2] = target: GFP-Paxillin (UniProt P49023); experiment: FRET or BRET; remark: listed apart in the source
GFP-Paxillin [3] = target: GFP-Paxillin (UniProt P49023); experiment: FRET or BRET; remark: listed apart in the source
FAK FAT = FAK FAT (UniProt Q05397); experiment: ITC; conditions: cited from earlier work
UniProt Q05397, sequence (Q05397 914-1045): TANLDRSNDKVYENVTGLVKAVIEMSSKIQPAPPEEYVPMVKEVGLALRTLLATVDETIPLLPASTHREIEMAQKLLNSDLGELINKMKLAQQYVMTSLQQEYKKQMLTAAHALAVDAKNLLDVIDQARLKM

| Substance | Kd (GFP-Paxillin [1]) [nM] | Kd (GFP-Paxillin [2]) [nM] | Kd (GFP-Paxillin [3]) [nM] | Kd (FAK FAT) [nM] |
| --- | --- | --- | --- | --- |
| FAT-mCherry (from UniProt P34152 1-1052) (domain or fragment) | 209 | 367 | 209 |  |
| paxillin LD peptide LD motif (from UniProt P49023) |  |  |  | 10000 |
